Assay results from patent publication US20110020359A1, “METHODS AND COMPOSITIONS FOR TREATING NEURONAL DAMAGE OR DEGENERATION” (California Institute of Technology, priority 2009, published 2011).
Blank lines part the entries; values can stand above or below the molecule they belong to.

Experiments:
[1] = system: dissociated rat P5-9 CGN cultures; test: Cerebellar granule neuron (CGN) neurite outgrowth assay; assay type: cell-based; settings: PD98059 25; AG1478 15 nM; Y27632 5 μM; JNK inhibitor II 10 μM
Method: Nitric acid-treated, 15-mm round German glass coverslips are coated with P-Orn in pH 6-8.5 borate buffer (at approximately 50 μg/ml) for about 1 hr at 37° C. and 5% CO2. CSPGs (at approximately 1 μg/ml) or polysaccharides enriched in the CS-A, CS-C, or CS-E sulfation motifs (at approximately 1 μg/ml) are coated on the P-Orn-coated coverslips overnight at 37° C. and 5% CO2. Cerebella from P5-9 Sprague Dawley rats are dissected, purified as described above, and cultured on the coated coverslips at a cell density of about 200 cells/mm^2. Neurons are grown in DMEM/F12, 1% FBS, and N1 supplement for about 24 hr.
In one example, inhibitors against MEK (PD98059, 25 μM; Calbiochem), EGFR (AG1478, 15 nM; Calbiochem), ROCK (Y27632, 5 μM; Calbiochem) and JNK (JNK Inhibitor II, 10 μM; Calbiochem) are added in solution at the start of culturing, and neurons are grown for 24 hr. For neurite outgrowth experiments from p75 knockout mice, cerebella from P5-7 mice, either C57BL/6 wild-type or p75−/− knockout mice, are dissected and purified as described above. Neurons are plated at a density of 200-300 cells/mm2 and cultured for about 24 hr. Cells are then fixed in 4% PFA/10% sucrose, immunostained with neuronal specific anti-class III β-tubulin antibody (TUJ1; Covance), and evaluated for neurite outgrowth. Neurons are imaged using a Nikon TE2000-S fluorescent microscope and quantified using the NIH software Image J. Statistical analysis is performed using the one-way ANOVA; n=50-200 cells per experiment.
P7 rat CGNs are grown for 24 hours on CS-E (1 μg/ml) in the presence of the CS-E antibody (CS-E Ab; 10 μg/ml).

[2] = Pull-down with biotinylated CS-E; assay type: binding; settings: COS-7 cell lysates, immunoblot
Text: Pull down assays can be useful for identifying proteins which bind to CS (e.g. CS-A, CS-C, or CS-E). Pull down assays can also be used for identifying agents that disrupt the binding between CS and a known binding partner. Full-length human p75 cDNA (amino acids 1-427; Open Biosystems) is ligated into a pcDNA3 vector (Invitrogen), modified to fuse an HA tag to the 5′ end of the insert. Human NgR (amino acids 27-473; imaGenes) is ligated into a modified pAPtag-5 vector (GenHunter) which fuses a secretion signal sequence and a c-myc tag to the 3′ end of the insert. COS-7 cells are transfected with either NgR-myc, p75-HA, or both using the Lipofectamine (Invitrogen) method. Cells are lysed about 2 days after transfection with 0.5-2% Triton X-100 in PBS containing a protease inhibitor mixture (Roche) by rocking for 15-90 min at 4° C. The lysates are clarified by centrifugation at 5-25,000 rpm for 1-30 min.
Biotin is attached to the free amino group of the residual core peptides of CS-C and CS-E polysaccharides (Seikagaku). […]
Biotinylated CS-C or CS-E (approximately 280 μg each) in 100-500 μl of PBS is added to streptavidin agarose resin (about 140 μl; Pierce) and incubated at room temperature for about 1 hr. […] NgR-myc and p75-HA are detected by immunoblotting with myc-tag (Cell Signaling) or HA-tag (Sigma) antibodies.

[3] = Surface plasmon resonance, binding to CS-E-enriched polysaccharides; settings: SPR; read-out: dissociation constant (Kd)
Method: Surface plasmon resonance experiments can be used to provide quantitative measurements of the binding kinetics or affinity between two or more molecules such as proteins, peptides, and small molecules. All experiments are performed on a Biacore T100 at 25° C. using a Sensor Chip CM5 with a running buffer composed of 0.01 M HEPES, pH 7.4, 0.15 M NaCl, 3 mM EDTA, 0.05% Surfactant P20 (HBS-EP^+). To analyze the binding of anti-CS-E antibody to the CS-E tetrasaccharide, both control and active flow cells are exposed to a 1:1 mixture of N-hydroxysuccinimide hydroxysuccinimide (NHS) and 1-ethyl-3,3-dimethylaminopropyl-carbodiimide (EDC) for 1-10 min at a flow rate of about 10 μL·min^−1. […] The kinetics of the anti-CS-E antibody/CS-E tetrasaccharide interaction is determined by approximately 300 s long injections of anti-CS-E antibody at about 30 μL·min^−1. The dissociation is monitored for about 900 s before the surface is regenerated with a 30 s injection of 6 M guanidine HCl. […] Affinity analysis is measured by injecting the antibody for about 3600 s at 5 μL·min^−1. […] The data is analyzed by plotting the response at equilibrium versus concentration and fitting the resulting curve to the Langmuir equation. […]
In another example, utilizing the surface plasmon resonance methods described, data was generated to quantify measurements of the binding kinetics between CS-E and the binding partner EphA4. […]

[4] = Carbohydrate microarray, binding to CS-E
Method: The concentrations of the solutions range from 250 nM to 40 μM, and are calibrated to one another using the carbazole assay for uronic acid residue. A given concentration of each polysaccharide is spotted five to ten times at different positions on the array. A boundary is created around the polysaccharide spots on the slides using a hydrophobic slide marker (Super Pap Pen, Research Products International) and the slides are blocked with 5-10% fetal bovine serum (FBS) in PBS with gentle rocking at 37 ° C. for about 1 hr, followed by a brief rinse with PBS. Human NgR-Fc or mouse EphB2-Fc (R & D Systems) is reconstituted in 1% BSA in PBS, added to the bound region on the slides in 100 μl quantities at a concentration of 1-2 μM, and incubated at room temperature for about 3 hr. The slides are briefly rinsed three times with PBS, and then incubated with a goat anti-human IgG antibody conjugated to Cy3 (1:5000 in PBS) for 1 hr in the dark with gentle rocking. After rinsing two times with PBS and once with H2O, the microarray is analyzed at 532 nm using a GenePix 5000a scanner, and fluorescence quantification is performed using GenePix 6.0. Binding of the anti-CS-E antibody is evaluated using 100 μl of a 1 μg/ml (˜7 nM) solution of antibody and a goat anti-mouse IgG secondary antibody conjugated to Cy3 (1:5000 in PBS). […]

Molecule: COc1cc2ncnc(Nc3cccc(Cl)c3)c2cc1OC [AG1478]
rescue of CS-E- and CSPG-mediated inhibition of neurite outgrowth [1]: rescue

Molecule: O=C1c2ccccc2-c2n[nH]c3cccc1c23 [JNK inhibitor II]
rescue of CS-E- and CSPG-mediated inhibition of neurite outgrowth [1]: no effect

Molecule: COc1cccc(-c2cc(=O)c3ccccc3o2)c1N [PD98059]
rescue of CS-E- and CSPG-mediated inhibition of neurite outgrowth [1]: rescue

Molecule: C[C@@H](N)[C@H]1CC[C@H](C(=O)Nc2ccncc2)CC1 [Y27632]
rescue of CS-E- and CSPG-mediated inhibition of neurite outgrowth [1]: rescue

B1: myc-NgR1: full-length myc-tagged human NgR expressed in COS-7 cells (protein, UniProt Q9BZR6 1-473, looked up)
chain: MKRASAGGSRLLAWVLWLQAWQVAAPCPGACVCYNEPKVTTSCPQQGLQAVPVGIPAASQRIFLHGNRISHVPAASFRACRNLTILWLHSNVLARIDAAAFTGLALLEQLDLSDNAQLRSVDPATFHGLGRLHTLHLDRCGLQELGPGLFRGLAALQYLYLQDNALQALPDDTFRDLGNLTHLFLHGNRISSVPERAFRGLHSLDRLLLHQNRVAHVHPHAFRDLGRLMTLYLFANNLSALPTEALAPLRALQYLRLNDNPWVCDCRARPLWAWLQKFRGSSSEVPCSLPQRLAGRDLKRLAANDLQGCAVATGPYHPIWTGRATDEEPLGLPKCCQPDAADKASVLEPGRPASAGNALKGRVPPGDSPPGNGSGPRHINDSPFGTLPGSAEPPLTAVRPEGSEPPGFPTSGPRRRPGCSRKNRTRSHCRLGQAGSGGGGTGDSEGSGALPSLTCSLTPLGLALVLWTVLGPC
modifications: full-length myc tag
notes: full-length myc-tagged human NgR expressed in COS-7 cells
pull-down by CS-E [2]: Pull-down of full-length, native NgR by CS-E

Kd [3]: 65 nM | binding to CS-E-enriched polysaccharides on carbohydrate microarrays [4]: selectively bind
B2: EfnA3: Ephrin A3, ligand that activates Eph receptors (protein, UniProt P52797 23-214, looked up)
Ephrin-A3: QGPGGALGNRHAVYWNSSNQHLRREGYTVQVNVNDYLDIYCPHYNSSGVGPGAGPGPGGGAEQYVLYMVSRNGYRTCNASQGFKRWECNRPHAPHSPIKFSEKFQRYSAFSLGYEFHAGHEYYYISTPTHNLHWKCLRMKVFVCCASTSHSGEKPVPTLPQFTMGPNVKINVLEDFEGENPQVPKLEKSISG

Kd [3]: 138 nM | binding to CS-E-enriched polysaccharides on carbohydrate microarrays [4]: selectively bind
B3: EfnB1: Ephrin B1, ligand that activates Eph receptors (protein, UniProt P98172 28-346, looked up)
Ephrin-B1: LAKNLEPVSWSSLNPKFLSGKGLVIYPKIGDKLDIICPRAEAGRPYEYYKLYLVRPEQAAACSTVLDPNVLVTCNRPEQEIRFTIKFQEFSPNYMGLEFKKHHDYYITSTSNGSLEGLENREGGVCRTRTMKIIMKVGQDPNAVTPEQLTTSRPSKEADNTVKMATQAPGSRGSLGDSDGKHETVNQEEKSGPGASGGSSGDPDGFFNSKVALFAAVGAGCVIFLLIIIFLTVLLLKLRKRHRKHTQQRAAALSLSTLASPKGGSGTAGTEPSDIIIPLRTTENNYCPHYEKVSGDYGHPVYIVQEMPPQSPANIYYKV
